According to article PMC9780748:

Columns and labels:
Experiment in all cases: potentiometry
[1] = target: Arg187 (UniProt position 187, …); details: 298 K; 0.04 M sodium dodecyl sulfate (no other salt stated); none (HClO4/KOH); free peptide (0.5 mM) in SDS, no metal
[2] = target: Tyr189 (UniProt position 189, …); details: 298 K, 0.04 M sodium dodecyl sulfate (no other salt stated), none (HClO4/KOH)
[3] = target: Arg76 (UniProt position 76, …); details: 298 K, 0.1 M NaClO4, none (HClO4/KOH)
[4] = target: Lys79 (UniProt position 79, …); details: 298 K, 0.1 M NaClO4, none (HClO4/KOH)
[5] = target: Cterm310 (UniProt position 310, GQLHCT-----); details: 298 K; 0.1 M NaClO4; none (HClO4/KOH); free peptide (0.5 mM), no metal
[6] = target: Glu303 (UniProt position 303, …); details: 298 K; 0.1 M NaClO4; none (HClO4/KOH); free peptide (0.5 mM), no metal
[7] = free peptide (0.5 mM) in SDS, no metal
[8] = Ni(II) complex, metal:peptide 1:1, 0.5 mM peptide
[9] = Zn(II) complex, metal:peptide 1:1, 0.5 mM peptide
[10] = free peptide (0.5 mM), no metal

MHRLYHVP [Aspf2 (Asp f 2 zincophore) fragment 185-192, Ac-MHRLYHVP-NH2 (Aspergillus fumigatus)]
pKa [1]: 11.21
pKa [2, 7]: 9.56

ARHAKAH [Aspf2 (Asp f 2 zincophore) fragment 75-81, Ac-ARHAKAH-NH2 (Aspergillus fumigatus)]
pKa [3, 8]: 11.38
pKa [3, 9]: 11.79
pKa [3, 10]: 11.14
pKa [4, 8]: 9.87
pKa [4, 9]: 9.75
pKa [4, 10]: 9.79

MHRLYHVPAVGQGWVDHFAD [Aspf2 (Asp f 2 zincophore) fragment 185-204, Ac-MHRLYHVPAVGQGWVDHFAD-NH2 (Aspergillus fumigatus)]
pKa [1]: 11.24
pKa ([2]; Zn(II) complex, metal:peptide 1:1, 0.5 mM peptide, in SDS): 9.56
pKa [2, 7]: 10.12

PNCHTHEGGQLHCT [Aspf2 (Asp f 2 zincophore) C-terminal fragment 297-310, Ac-PNCHTHEGGQLHCT (Aspergillus fumigatus)]
pKa [5]: 3.08
pKa [6]: 4.24
